Measured values taken from paper PMC11506546, “Tropomyosin Isoforms Segregate into Distinct Clusters on Single Actin Filaments” (Biomolecules, 2024).

How the values were obtained:
Settings in all cases: both partners purified
[1] = target: rabbit skeletal-muscle F-actin (rabbit, UniProt P68135 1-377); test: co-sedimentation; 0.2-3.5 µM tropomyosin with 3 µM F-actin in T buffer (150 mM NaCl, 10 mM Tris-HCl pH 7.5, 2 mM MgCl2), 50 µL, 1 h at room temperature; 670,000 x g, 20 °C, 30 min; SDS-PAGE densitometry; Hill equation fit; apparent Kd
[2] = target: α-actin filament (muscle actin, polymerized from G-actin) (UniProt P68135 1-377); test: TIRF microscopy of tropomyosin-decorated single actin filaments; control experiments: the same Tpm isoform labeled with AF488 and with AF568 (0.015 µM of each) mixed with 1 µM G-actin in D buffer, polymerized with 50 mM NaCl for 5-10 min, 10% PEG 300; decorated filaments captured on PLL-PEG/BSA coverslips in microfluidic channels, washed with TIR50 buffer
[3] = target: β-actin filament (cytoskeletal actin, polymerized from G-actin) (UniProt P60709 1-375); test: as above

B1: Tpm1.6 AF568 (Tpm1.6 labeled at Cys-190 with Alexa Fluor 568 C5 maleimide) (natural protein)
chain: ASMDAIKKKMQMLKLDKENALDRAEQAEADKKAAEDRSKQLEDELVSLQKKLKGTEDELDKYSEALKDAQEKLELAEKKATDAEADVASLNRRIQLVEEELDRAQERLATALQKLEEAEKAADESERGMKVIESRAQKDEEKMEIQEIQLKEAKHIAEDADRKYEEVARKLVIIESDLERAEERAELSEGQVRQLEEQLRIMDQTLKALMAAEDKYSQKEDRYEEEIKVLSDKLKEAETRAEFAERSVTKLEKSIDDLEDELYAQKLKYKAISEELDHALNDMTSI
modifications: Alexa Fluor 568 C5 maleimide on Cys-190 (monomer labeling ratio approximately 95%)
B1 was tested, and the Kd [1] was 2370 nM, the “ratio of Tpm in Ch1 (red, AF568)/Ch2 (green, AF488) on the filament, median” value [2] was 0.7 and the “ratio of Tpm in Ch1 (red, AF568)/Ch2 (green, AF488) on the filament, median” value [3] was 0.7.

B2: Tpm1.6 AF488 (Tpm1.6 labeled at Cys-190 with Alexa Fluor 488 C5 maleimide) (natural protein)
chain: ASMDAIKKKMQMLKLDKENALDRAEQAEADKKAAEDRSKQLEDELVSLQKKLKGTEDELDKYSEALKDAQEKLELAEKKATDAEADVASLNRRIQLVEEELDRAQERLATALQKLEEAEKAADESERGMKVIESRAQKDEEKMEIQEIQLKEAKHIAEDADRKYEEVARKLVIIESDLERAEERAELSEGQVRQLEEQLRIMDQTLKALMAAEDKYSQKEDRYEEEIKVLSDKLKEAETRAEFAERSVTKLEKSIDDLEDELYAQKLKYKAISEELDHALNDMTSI
modifications: Alexa Fluor 488 C5 maleimide on Cys-190 (monomer labeling ratio approximately 95%)
Work on B2 yielded a Kd [1] of 1210 nM.
